The values below come from patent US20060110789A1, “Methods to mediate polyketide synthase module effectiveness” (priority 2002, published 2006).

Assay [1] has as its target M3+TE (module 3 of DEBS with its own N-terminal linker, fused to thioesterase) (UniProt Q03132). The assay can be described thus: estimated from the saturation curve of the rate of tetraketide formation against M3+TE concentration at fixed M2 (kinetic, in solution).
Assay [2] deals with (5)M3+TE (module 3 of DEBS with the N-terminal linker of module 5, fused to thioesterase) (UniProt Q03132). The experiment in a line: estimated from the saturation curve of the rate of tetraketide formation against (5)M3+TE concentration at fixed 0.5 µM M2(4) (kinetic, in solution).
Assay [3] has as its target (5)M5+TE (module 5 of DEBS with its own N-terminal linker, fused to thioesterase) (UniProt Q03133). The experiment in a line: cell-based or functional assay.
Assay [4] deals with (3)M5+TE (module 5 of DEBS with the N-terminal linker of module 3, fused to thioesterase) (UniProt Q03133). The assay can be described thus: cell-based or functional assay.
The target in assay [5] is (5)M6+TE (module 6 of DEBS with the N-terminal linker of module 5, with thioesterase) (UniProt Q03133). The assay can be described thus: cell-based or functional assay.
The target of assay [6] is (5)M2+TE (module 2 of DEBS with the N-terminal linker of module 5, fused to thioesterase) (UniProt Q03131). The assay can be described thus: cell-based or functional assay.

The Kd is the concentration at which binding is half-saturated.

On to “M2 (module 2 of DEBS with its natural C-terminal linker) (from UniProt Q03131 1982-3404; Q03131 3408-3491) (enzyme)”, for which, in assay [1], the Kd is 1100 nM.

Take “M2(4) (module 2 of DEBS with the C-terminal linker of module 4) (from UniProt Q03131 1982-3404; Q03132 3489-3567) (enzyme)”: in assay [2], the Kd is 2100 nM.

In the case of “diketide-ACP2(4) (DEBS ACP2 with the C-terminal linker of module 4, loaded with diketide) (from UniProt Q03131 3320-3408; Q03132 3489-3567)”, the k60 µM, fold decrease against the matched reaction (FIG. 28 C) in assay [3] was found to be 20 fold.

In assay [4], “diketide-ACP4(4) (DEBS ACP4 with its natural C-terminal linker, loaded with diketide) (from UniProt Q03132 3398-3567)” registered a k60 µM, fold decrease against the matched reaction (FIG. 28 B) of 20 fold. For the same substance, the maximal rate of elongation of 4a, fold increase against the NAC thioester 2a in assay [3] is over 40 fold.

Regarding “diketide-ACP4(Ø) (DEBS ACP4 without linker, loaded with diketide) (from UniProt Q03132 3398-3488)”, the k60 µM, fold decrease against diketide-ACP4(4) with the same module in assay [5] and in assay [6] was 10 fold throughout. The substance also came in with a k60 µM (FIG. 29 B) in assay [4] of 0.27 min⁻¹. Also, the k60 µM (FIG. 29 A) in assay [3] turned out to be 0.49 min⁻¹.

On to “diketide-NovH(4) (NovH fused to the C-terminal linker of DEBS module 4, loaded with diketide) (from UniProt Q03132 3489-3567)”, for which the k60 µM in assay [5] amounted to 0.53 min⁻¹.
